Measured values published in patent US5985608.

Target: endogenous β-actin of the bovine neutrophil plasma membrane (bovine) (UniProt P60712)
Assay: control of the co-immunoprecipitation, protein A-agarose beads

β-actin co-precipitated relative to the anti-pepA immunoprecipitate: < 5%
Substance: nonspecific rabbit IgG (polyclonal serum or antibody)
